# Article doi:10.1101/2023.02.13.526773
# Experiments:
# [1] = target: FLAG-tagged GFP11-CHAMP-1 fusion (N-terminal GFP11); experiment: split reporter
# [2] = target: mEpoR-TM2 (isotope-labelled recombinant mEpoR TM domain fragment) (mouse); experiment: SDS-PAGE
fold MFI over cells expressing either fusion alone [1],stoichiometry N [2],Substance
> 4 fold,–,mEpoR-GFP1-10 fusion protein (domain or fragment)
–,2,mEpoR-TM2 (isotope-labelled recombinant mEpoR TM domain fragment) (domain or fragment)
